Data: PMC6070752

Columns and labels:
[1] = target: T1, His6-MgrA (Staphylococcus aureus NCTC8325) (UniProt Q2G0B1); assay: EMSA; conditions: EMSA: 50 mM Tris-HCl pH 8.0, 200 mM NaCl, 25°C, 1 h, DNase I footprinting: 20 mM Tris-HCl pH 8.0, 100 mM NaCl, 5 mM MgCl2, 1 mM CaCl2, 2 mM DTT
T1 sequence: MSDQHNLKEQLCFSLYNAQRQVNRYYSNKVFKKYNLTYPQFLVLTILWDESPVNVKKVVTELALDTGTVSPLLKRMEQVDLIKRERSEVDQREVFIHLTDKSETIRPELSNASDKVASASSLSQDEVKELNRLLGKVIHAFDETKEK

[2] = target: T1, His6-MgrA (Staphylococcus aureus NCTC8325); assay: competition; conditions: EMSA: 50 mM Tris-HCl pH 8.0, 200 mM NaCl, 25°C, 1 h, DNase I footprinting: 20 mM Tris-HCl pH 8.0, 100 mM NaCl, 5 mM MgCl2, 1 mM CaCl2, 2 mM DTT

Sequence: ACTTAAATACGAATTCAGGCAACTTAATTGTGTTAAATACAGTTTTGAATGCCTAACTGTATTTCTTTTCTCTTTAAAATACAGTTAAGTACATTATAAGATGTTGTGCGGATAAACAAACTAATTGCATCAAATTTATTTTAAAATAACAACAACAAAACGTTAAGCGAATAACATTTCGGTGATTTAAAAGCTACGCACGTTTTTGTTATCTTCAAATTTAAATTTTAAGGAGTGTTTTCAATGGAAGGTT (double strand) [psmβ promoter fragment (Ppsmβ-biotin), 243 bp]
- binding [1]: binds

Sequence: ACTTAAATACGAATTCAGGCAACTTAATTGTGTTAAATACAGTTTTGAATGCCTAACTGTATTTCTTTTCTCTTTAAAATACAGTTAAGTACATTATAAGATGTTGTGCGGATAAACAAACTAATTGCATCAAATTTATTTTAAAATAACAACAACAAAACGTTAAGCGAATAACATTTCGGTGATTTAAAAGCTACGCACGTTTTTGTTATCTTCAAATTTAAATTTTAAGGAGTGTTTTCAATGGAAGGTT (double strand) [unlabeled psmβ promoter fragment (Ppsmβ), 243 bp]
- binding [2]: binds
